This is an account of results in IntAct's records for PubMed 29769718.

To fix the notation:
B1: Alanine--tRNA ligase, cytoplasmic (Mus musculus), Q8BGQ7 (parent)
chain: MDATLTAREIRERFINFFRRNEHTYVHSSATIPLDDPTLLFANAGMNQFKPIFLNTIDPSHPMAKLSRAANTQKCIRAGGKHNDLDDVGKDVYHHTFFEMLGSWSFGDYFKELACKMALELLTQEFGIPVERLYVTYFGGDEAAGLEPDLECRQIWQNLGLDEARILPGNMKDNFWEMGDTGPCGPCSEIHYDRIGGRDAAHLVNQDDPNVLEIWNLVFIQYNRESDGVLKPLPKKSIDTGMGLERLVSVLQNKMSNYDTDLFMPYFEAIQKGTGARPYTGKVGAEDADGIDMAYRVLADHARTITVALADGGRPDNTGRGYVLRRILRRAVRYSHEKLNASRGFFATLVDVVVQSLGDAFPELKKDPEMVKDIINEEEVQFLKTLSRGRRILDRKIQSLGDCKTIPGDTAWLLYDTYGFPVDLTGLIAEEKGLVVDMNGFEEERRLAQLKSQGKGAGDEDLIMLDIYAIEELRAKGLEATDDSPKYNYQSDSSGSYVFECTVATVLALRREKMFVDEVVTGQECGVVLDKTCFYAEQGGQIYDEGYLVKVDDSSEDKTEFTVKNAQVRGGYVLHIGTIYGNLKVGDQVRLFIDEPRRRPVMSNHTATHILNFALRSVLGEADQKGSLVAPDRLRFDFTAKGAMSTQQIKKAEEIVNGMIEAAKPVYTQDCPLAAAKAIQGLRAVFDETYPDPVRVVSIGVPVSELLDDPCGPAGSLTSVEFCGGTHLRNSSHAGAFVIVTEEAIAKGIRRIVAVTGAEAQKALRKSETLKKSLSAMEAKVKAQTAPNKDVQREIADLGEALATAVIPQWQKDEQRETLKSLKKVMDDLDRASKADVQKRVLEKTKQLIDSNPNQPLVILEMESGASAKALNEALKLFKTHSPQTSAMLFTVDNEAGKITCLCQVPQNAANRGLKASEWVQQVSGLMDGKGGGKDMSAQATGKNVGCLQEALQLATSFAQLRLGDVKN
B2: Ankyrin repeat domain-containing protein 16 (Mus musculus), A2AS55-1 (parent)
chain: MALPGDPRRLCRLVQEGRLRDLQEELAVARGCRGPAGDTLLHCAARHGRQDILAYLVEAWSMDIEATNRDYKRPLHEAASMGHRDCVRYLLGRGAVVDSLKKADWTPLMMACTRKNLDVIQDLVEHGANPLLKNKDGWNSFHIASREGHPVILRYLLTVCPDAWKTESNIRRTPLHTAAMHGCLEAVQVLLERCHYEPDCRDNCGVTPFMDAIQCGHVSIAKLLLEQHKACSSAADSMGAQALHRAAVTGQDEAIRFLVCGLGIDVDVRAKSSQLTALHYAAKEGQTNTVQTLLSLGADINSTDERNRSVLHLACAGQHVACTRLLLQSGLKDSEDLTGTLAQQLTRSVDILQDFDHDVKS

The variants in one assay derive from B1. The settings on record: with Ankrd16, A2AS55-1.
In the case of A734E, the “effect of a mutation on the interaction” value was “with no effect”.

Another assay covers variants of B2. The settings on record: with syac_mouse Aars1, Q8BGQ7.
As to K102R;K135R;K165R, the “effect of a mutation on the interaction” value is reported as “disrupting interaction strength”.
